From patent publication US20230165981A1, “[161Tb]-BASED RADIOPEPTIDES” (priority 2021, published 2023)
Values joined by “and” are separate entries in the source; they are usually repeats but may differ in a detail not shown here. Identical values can stand only once. Like-named read-outs stand apart in the source and are kept apart here. Positions of bridges follow the written chain, without caps; N, C: chain ends. Non-standard residues stand in square brackets, D forms with d. Residues, ends and D or L forms follow the SMILES beside them. *: point of attachment. DOTA = O=C(O)CN1CCN(CC(=O)O)CCN(CC(=O)*)CCN(CC(=O)O)CC1; dPhe(4-NHCONH2) = NC(=O)Nc1ccc(C[C@@H](N)C(=O)O)cc1; Phe(4-Cl) = N[C@@H](Cc1ccc(Cl)cc1)C(=O)O

Columns and labels:
[1] = Biodistribution: optimum injected molar amount; conditions: female, mouse, in vivo, iv, total radioactivity, 2 h p.i.
[2] = n-octanol/PBS distribution coefficient (logD), shake-flask method; assay type: physicochemical; conditions: n-octanol/PBS pH 7.4
Experimental: An aliquot of the radiolabeled peptide (0.5 MBq, 25 µL) was added to a mixture of 1475 µL PBS pH 7.4 and 1500 µL n-octanol. The respective tubes were vortexed for 60 sec and centrifuged for 6 min at 2500 rpm followed by the measurement of the activity concentration in a defined volume of each layer using a γ-counter (Perkin Elmer, Wallac Wizard 1480). The logD values were calculated as the logarithm of the ratio of counts per minute (cpm) measured in the n-octanol phase relative to the cpm measured in the PBS pH 7.4 phase. The experiments were performed three times with five replicates for each radiopeptide and the logD value was expressed as the average ± standard deviation (SD) of the values obtained in each experiment. […] A p value <0.05 was considered statistically significant.

AR42J tumors = test: Preclinical therapy study in AR42J tumor-bearing mice; assay type: in vivo
[3] = Assessment of early side effects in therapy mice; conditions: endpoint of therapy
Experimental: Early side effects were assessed based on the RBW of each mouse which was monitored every second day. When an endpoint was reached or at the end of the study (after 49 days), relevant organs and tissues were collected, weighed and put into relation to the brain mass and body weight of the respective mouse. This allowed comparison of organ-to-brain and organ-to-body mass weight ratios. In addition, blood plasma parameters from blood collected immediately after euthanasia were measured.
RBW, organ mass and mass ratios at the endpoint: The RBW was monitored every second day. Mice were euthanized when a predefined endpoint criterion was reached or when the study was terminated at Day 49. RBWs, organ masses, organ mass ratios (kidney-to-brain, liver-to-brain and spleen-to-brain) and organ mass to body weight ratios (kidney-to-body mass, liver-to-body mass and spleen-to-body mass) were analyzed for significance using a one-way ANOVA test with a Tukey’s multiple comparisons post-test. A p-value of <0.05 was considered as statistically significant.
Blood plasma chemistry: Immediately before euthanasia of the mice that reached the endpoint, blood was sampled from the retrobulbar vein. The values of creatinine (CRE), blood urea nitrogen (BUN), alkaline phosphatase (ALP), total bilirubin (TBIL) and albumin (ALB) were determined in the plasma after centrifugation of the blood using a dry chemistry analyzer (DRI-CHEM 4000i, FUJIFILM, Japan). The average blood plasma parameters of each group were analyzed for significance using a one-way ANOVA test with a Tukey’s multiple comparisons post-test. A p-value of <0.05 was considered as statistically significant.

AR42J tumor-bearing mice = test: Biodistribution: optimum injected molar amount; conditions: 2 h p.i.
in vivo = conditions: female, athymic nude (CD-1 Foxn-1nu), mouse, iv, 1 nmol/mouse, total radioactivity
Experimental: Five-week-old female, athymic nude mice (CD-1 Foxn-⅟nu) were obtained from Charles River Laboratories (Sulzfeld, Germany). Mice were subcutaneously inoculated with AR42J tumor cells (5 × 10^6 cells in 100 µL PBS) for SPECT/CT imaging, biodistribution and therapy studies. The SPECT/CT and biodistribution studies were performed 10-14 days after tumor cell inoculation when the tumor size reached a volume of ~250 mm^3.
The mice were sacrificed at 2 h and 24 h post injection (p.i.). Selected tissues and organs were collected, weighed, and the accumulated activity was counted in a γ-counter. The decay-corrected data were listed as the percentage of the injected activity per gram of tissue mass (% IA/g). The data were analyzed for significance using a two-way ANOVA with Tukey’s multiple comparison post-tests. A p-value of <0.05 was considered statistically significant.

C[C@@H](O)[C@@H]1NC(=O)[C@H](CCCCN)NC(=O)[C@@H](Cc2c[nH]c3ccccc23)NC(=O)[C@H](Cc2ccc(O)cc2)NC(=O)[C@@H](NC(=O)[C@@H](Cc2ccccc2)NC(=O)CN2CCN(CC(=O)O)CCN(CC(=O)O)CCN(CC(=O)O)CC2)CSSC[C@@H](C(=O)N[C@H](CO)[C@@H](C)O)NC1=O [[^161Tb]Tb-DOTATOC, metal not drawn]
tissue uptake at 2 h ([1]; CD-1 Foxn-1nu athymic nude, 0.04 nmol/mouse, Biodistribution: Adrenals, 0.040 nmol/mouse): 0.65 ± 0.08 %ID/g | tissue uptake at 2 h ([1]; CD-1 Foxn-1nu athymic nude, 0.04 nmol/mouse, Biodistribution: Kidneys, 0.040 nmol/mouse): 9 ± 2 %ID/g | tissue uptake at 2 h ([1]; CD-1 Foxn-1nu athymic nude, 0.2 nmol/mouse, Biodistribution: Heart, 0.20 nmol/mouse): < 0.1 %ID/g | tissue uptake at 2 h ([1]; athymic nude (CD-1 Foxn-1nu), 0.04 nmol/mouse, Biodistribution: AR42J Tumor, 0.040 nmol/mouse): 16 ± 4 %ID/g | tissue uptake at 2 h ([1]; athymic nude (CD-1 Foxn-1nu), 0.04 nmol/mouse, Biodistribution: Blood, 0.040 nmol/mouse): < 0.1 %ID/g | tissue uptake at 2 h ([1]; athymic nude (CD-1 Foxn-1nu), 0.04 nmol/mouse, Biodistribution: Heart, 0.040 nmol/mouse): < 0.1 %ID/g | tissue uptake at 2 h ([1]; athymic nude (CD-1 Foxn-1nu), 0.04 nmol/mouse, Biodistribution: Muscle, 0.040 nmol/mouse): < 0.1 %ID/g | tissue uptake at 2 h ([1]; athymic nude (CD-1 Foxn-1nu), 0.2 nmol/mouse, Biodistribution: AR42J Tumor, 0.20 nmol/mouse): 14 ± 1 %ID/g | tissue uptake at 2 h ([1]; athymic nude (CD-1 Foxn-1nu), 0.2 nmol/mouse, Biodistribution: Blood, 0.20 nmol/mouse): < 0.1 %ID/g | tissue uptake at 2 h ([1]; athymic nude (CD-1 Foxn-1nu), 0.2 nmol/mouse, Biodistribution: Muscle, 0.20 nmol/mouse): < 0.1 %ID/g | tissue uptake at 2 h ([1]; athymic nude (CD-1 Foxn-1nu), 1 nmol/mouse, Biodistribution: AR42J Tumor, 1.0 nmol/mouse): ~8 %ID/g | tissue uptake at 2 h ([1]; athymic nude (CD-1 Foxn-1nu), kidney uptake, irrespective of the applied setting (0.04-1.0 nmol)): ~10 %ID/g

C[C@@H](O)[C@@H]1NC(=O)[C@H](CCCCN)NC(=O)[C@@H](Cc2c[nH]c3ccccc23)NC(=O)[C@H](Cc2ccc(O)cc2)NC(=O)[C@@H](NC(=O)[C@@H](Cc2ccccc2)NC(=O)CN2CCN(CC(=O)O)CCN(CC(=O)O)CCN(CC(=O)O)CC2)CSSC[C@@H](C(=O)N[C@H](CO)[C@@H](C)O)NC1=O [[^177Lu]Lu-DOTATOC] [metal not drawn]
LogD [2]: -3.1 ± 0.2 | Median survival (AR42J tumors; 2 x 10 MBq, 0.2 nmol): 19.5 days | tumor growth delay (AR42J tumors; 2 x 10 MBq, 0.2 nmol, Day 0 and 7): 6.0 ± 4.4 days | Time frame of euthanasia (AR42J tumors; 2 x 10 MBq, 0.2 nmol, end of study = 49 days): 12 to 22 days | tumor doubling time (AR42J tumors; regrowth phase): 3.4 ± 0.8 days | ALB (albumin) [3]: 24 ± 5 g/L | ALP (alkaline phosphatase) [3]: 77 ± 8 U/L | BUN (blood urea nitrogen) [3]: 6.3 ± 0.9 mmol/L | CRE (plasma creatinine) [3]: <18 (n=5) µmol/L | TBIL (total bilirubin) [3]: < 3 µmol/L and 4 ± 1 µmol/L | Biodistribution: AR42J Tumor (AR42J tumor-bearing mice; 0.040 nmol/mouse): ~ 17 % IA/g | Biodistribution: Blood (AR42J tumor-bearing mice; 0.040 nmol/mouse): ≤0.10 % IA/g | Biodistribution: Heart (AR42J tumor-bearing mice; 0.040 nmol/mouse): ≤0.10 % IA/g | Biodistribution: Kidneys (AR42J tumor-bearing mice; 0.040 nmol/mouse): 10 ± 2 % IA/g | Biodistribution: Muscle (AR42J tumor-bearing mice; 0.040 nmol/mouse): ≤0.10 % IA/g | Tu-to-adr (tumor-to-adrenals) (AR42J tumor-bearing mice; 0.040 nmol/mouse): 28 ± 2 | Tu-to-blood (AR42J tumor-bearing mice; 0.040 nmol/mouse): 213 ± 41 | Tu-to-kidney (AR42J tumor-bearing mice; 0.040 nmol/mouse): 1.9 ± 0.3 | Tu-to-liver (AR42J tumor-bearing mice; 0.040 nmol/mouse): 100 ± 8 | Tu-to-lung (tumor-to-lungs) (AR42J tumor-bearing mice; 0.040 nmol/mouse): 17 ± 3 | Tu-to-panc (tumor-to-pancreas) (AR42J tumor-bearing mice; 0.040 nmol/mouse): 9.7 ± 1.8 | Tu-to-sto (tumor-to-stomach) (AR42J tumor-bearing mice; 0.040 nmol/mouse): 11 ± 2 | Biodistribution: Blood (AR42J tumor-bearing mice; 0.20 nmol/mouse): <0.10 % IA/g | Biodistribution: Femur (AR42J tumor-bearing mice; 0.20 nmol/mouse): 0.10 ± 0.01 % IA/g | Biodistribution: Heart (AR42J tumor-bearing mice; 0.20 nmol/mouse): <0.10 % IA/g | Biodistribution: Kidneys (AR42J tumor-bearing mice; 0.20 nmol/mouse): 10 ± 3 % IA/g | Biodistribution: Muscle (AR42J tumor-bearing mice; 0.20 nmol/mouse): <0.10 % IA/g | Tu-to-adr (tumor-to-adrenals) (AR42J tumor-bearing mice; 0.20 nmol/mouse): 47 ± 29 | Tu-to-blood (AR42J tumor-bearing mice; 0.20 nmol/mouse): 235 ± 60 | Tu-to-kidney (AR42J tumor-bearing mice; 0.20 nmol/mouse): 1.9 ± 0.4 | Tu-to-liver (AR42J tumor-bearing mice; 0.20 nmol/mouse): 118 ± 24 | Tu-to-lung (tumor-to-lungs) (AR42J tumor-bearing mice; 0.20 nmol/mouse): 27 ± 6 | Tu-to-panc (tumor-to-pancreas) (AR42J tumor-bearing mice; 0.20 nmol/mouse): 10 ± 2 | Tu-to-sto (tumor-to-stomach) (AR42J tumor-bearing mice; 0.20 nmol/mouse): 15 ± 4 | Biodistribution: AR42J Tumor (AR42J tumor-bearing mice; 1.0 nmol/mouse): 8.9 ± 1.5 % IA/g | Biodistribution: Adrenals (AR42J tumor-bearing mice; 1.0 nmol/mouse): 0.28 ± 0.08 % IA/g | Biodistribution: Blood (AR42J tumor-bearing mice; 1.0 nmol/mouse): <0.10 % IA/g | Biodistribution: Femur (AR42J tumor-bearing mice; 1.0 nmol/mouse): <0.10 % IA/g | Biodistribution: Heart (AR42J tumor-bearing mice; 1.0 nmol/mouse): <0.10 % IA/g | Biodistribution: Intestines (AR42J tumor-bearing mice; 1.0 nmol/mouse): 0.20 ± 0.05 % IA/g | Biodistribution: Kidneys (AR42J tumor-bearing mice; 1.0 nmol/mouse): 11 ± 1 % IA/g | Biodistribution: Liver (AR42J tumor-bearing mice; 1.0 nmol/mouse): 0.26 ± 0.07 % IA/g | Biodistribution: Lung (AR42J tumor-bearing mice; 1.0 nmol/mouse): 0.37 ± 0.06 % IA/g | Biodistribution: Muscle (AR42J tumor-bearing mice; 1.0 nmol/mouse): <0.10 % IA/g | Biodistribution: Pancreas (AR42J tumor-bearing mice; 1.0 nmol/mouse): 0.80 ± 0.13 % IA/g | Biodistribution: Spleen (AR42J tumor-bearing mice; 1.0 nmol/mouse): 0.15 ± 0.03 % IA/g | Biodistribution: Stomach (AR42J tumor-bearing mice; 1.0 nmol/mouse): 0.65 ± 0.11 % IA/g | Tu-to-adr (tumor-to-adrenals) (AR42J tumor-bearing mice; 1.0 nmol/mouse): 29 ± 3 | Tu-to-lung (tumor-to-lungs) (AR42J tumor-bearing mice; 1.0 nmol/mouse): 25 ± 3 | Tu-to-panc (tumor-to-pancreas) (AR42J tumor-bearing mice; 1.0 nmol/mouse): 13 ± 1 | Tu-to-sto (tumor-to-stomach) (AR42J tumor-bearing mice; 1.0 nmol/mouse): 15 ± 5 | kidney uptake (AR42J tumor-bearing mice; irrespective of the applied setting (0.04-1.0 nmol)): ~ 10%

C[C@@H](O)[C@@H]1NC(=O)[C@H](CCCCN)NC(=O)[C@@H](Cc2ccc(NC(N)=O)cc2)NC(=O)[C@H](Cc2ccc(O)cc2)NC(=O)[C@H](NC(=O)[C@H](Cc2ccc(Cl)cc2)NC(=O)CN2CCN(CC(=O)O)CCN(CC(=O)O)CCN(CC(=O)O)CC2)CSSC[C@@H](C(=O)N[C@H](Cc2ccc(O)cc2)C(N)=O)NC1=O [metal not drawn] ({DOTA}-[Phe(4-Cl)][dC]Y[dPhe(4-NHCONH2)]KTC[dY]-NH2; disulfide 2-7)
LogD ([2]; read-out: LogD): -2.5 ± 0.1 | ALB (albumin) [3]: 23 ± 1 g/L | ALP (alkaline phosphatase) [3]: 66 ± 5 U/L | BUN (blood urea nitrogen) [3]: 8.2 ± 1.9 mmol/L and 8.2 ± 1.8 mmol/L | CRE (plasma creatinine) [3]: <18 (n=5) µmol/L and 19 (n=1) µmol/L | TBIL (total bilirubin) [3]: <3 (n=4) µmol/L and 4 ± 1 (n=2) µmol/L | tissue uptake at 24 h (in vivo; intestines): 0.14 ± 0.03 %ID/g | tissue uptake at 2 h (in vivo; kidneys): 11 ± 1 %ID/g | Tu-to-adr (tumor-to-adrenals) (AR42J tumor-bearing mice; 0.040 nmol/mouse): 11 ±4 | Tu-to-blood (AR42J tumor-bearing mice; 0.040 nmol/mouse): 289 ± 45 | Tu-to-kidney (AR42J tumor-bearing mice; 0.040 nmol/mouse): 4.3 ± 1.2 | Tu-to-adr (tumor-to-adrenals) (AR42J tumor-bearing mice; 0.20 nmol/mouse): 34 ± 9.2 | Tu-to-blood (AR42J tumor-bearing mice; 0.20 nmol/mouse): 492 ± 102 | Tu-to-kidney (AR42J tumor-bearing mice; 0.20 nmol/mouse): 4.3 ± 0.4 | Tu-to-liver (AR42J tumor-bearing mice; 0.20 nmol/mouse): 90 ± 11 | Biodistribution: Blood (AR42J tumor-bearing mice; 1.0 nmol/mouse): ≤0.10 % IA/g | Biodistribution: Heart (AR42J tumor-bearing mice; 1.0 nmol/mouse): ≤0.10 % IA/g | Biodistribution: Muscle (AR42J tumor-bearing mice; 1.0 nmol/mouse): ≤0.10 % IA/g | Tu-to-adr (tumor-to-adrenals) (AR42J tumor-bearing mice; 1.0 nmol/mouse): 36 ± 6
